This series has as its system ADGRD1. The series is described as follows: Cell-surface expression by flow cytometry, ADGRD1. Type of series: cell-based, human. Conditions: ADGRD1 constructs (pD1 Gs part of table), anti-Flag antibody, three independent measurements in duplicate. How it is done: The wild-type ADGRD1 and ADGRF1 and mutants used in functional studies were constructed into a pTT5 vector with a Flag tag at the N terminus for receptor expression measurement. The basal activity of ADGRD1 and ADGRF1 in mediating Gs signalling was measured by a cAMP accumulation assay using a LANCE Ultra cAMP detection kit (PerkinElmer) following the manufacturer’s instruction. In brief, 2 ml HEK293F cells (Invitrogen; cells were routinely tested for mycoplasma contamination) at a density of 1.2 × 10^6 cells per ml were transiently transfected with 2,000 ng plasmid of the wild-type or mutant receptor and cultured at 37 °C for 48 h with 5% CO2 atmosphere in a shaker shaking at 220 rpm. After collection, the cell-surface expression of the receptors was measured by incubating 10 μl cells with 15 μl monoclonal anti-Flag M2-FITC antibody (Sigma; 1:120 diluted in TBS supplemented with 4% BSA and 20% viability staining solution 7-AAD (Invitrogen)) at 4 °C for 20 min. After incubation, 175 μl TBS buffer was added and the fluorescent signal was measured using a flow cytometry reader (Guava easyCyte HT, Millipore).

B1: F716^5.36bA (protein, UniProt Q6QNK2 26-874, looked up, variant F716A)
Adhesion G-protein coupled …: VYSRSQDHPGFQVLASASHYWPLENVDGIHELQDTTGDIVEGKVNKGIYLKEEKGVTLLYYGRYNSSCISKPEQCGPEGVTFSFFWKTQGEQSRPIPSAYGGQVISNGFKVCSSGGRGSVELYTRDNSMTWEASFSPPGPYWTHVLFTWKSKEGLKVYVNGTLSTSDPSGKVSRDYGESNVNLVIGSEQDQAKCYENGAFDEFIIWERALTPDEIAMYFTAAIGKHALLSSTLPSLFMTSTASPVMPTDAYHPIITNLTEERKTFQSPGVILSYLQNVSLSLPSKSLSEQTALNLTKTFLKAVGEILLLPGWIALSEDSAVVLSLIDTIDTVMGHVSSNLHGSTPQVTVEGSSAMAEFSVAKILPKTVNSSHYRFPAHGQSFIQIPHEAFHRHAWSTVVGLLYHSMHYYLNNIWPAHTKIAEAMHHQDCLLFATSHLISLEVSPPPTLSQNLSGSPLITVHLKHRLTRKQHSEATNSSNRVFVYCAFLDFSSGEGVWSNHGCALTRGNLTYSVCRCTHLTNFAILMQVVPLELARGHQVALSSISYVGCSLSVLCLVATLVTFAVLSSVSTIRNQRYHIHANLSFAVLVAQVLLLISFRLEPGTTPCQVMAVLLHYFFLSAFAWMLVEGLHLYSMVIKVFGSEDSKHRYYYGMGWGFPLLICIISLSFAMDSYGTSNNCWLSLASGAIWAAVAPALFVIVVNIGILIAVTRVISQISADNYKIHGDPSAFKLTAKAVAVLLPILGTSWVFGVLAVNGCAVVFQYMFATLNSLQGLFIFLFHCLLNSEVRAAFKHKTKVWSLTSSSARTSNAKPFHSDLMNGTRPGMASTKLSPWDKSSHSAHRVDLSAV
In the case of B1, the “Cell-surface expression (% of WT)” value is 98 ± 3 % of WT.

B2: W773^6.53bA (protein, UniProt Q6QNK2 26-874, looked up, variant W773A)
Adhesion G-protein coupled …: VYSRSQDHPGFQVLASASHYWPLENVDGIHELQDTTGDIVEGKVNKGIYLKEEKGVTLLYYGRYNSSCISKPEQCGPEGVTFSFFWKTQGEQSRPIPSAYGGQVISNGFKVCSSGGRGSVELYTRDNSMTWEASFSPPGPYWTHVLFTWKSKEGLKVYVNGTLSTSDPSGKVSRDYGESNVNLVIGSEQDQAKCYENGAFDEFIIWERALTPDEIAMYFTAAIGKHALLSSTLPSLFMTSTASPVMPTDAYHPIITNLTEERKTFQSPGVILSYLQNVSLSLPSKSLSEQTALNLTKTFLKAVGEILLLPGWIALSEDSAVVLSLIDTIDTVMGHVSSNLHGSTPQVTVEGSSAMAEFSVAKILPKTVNSSHYRFPAHGQSFIQIPHEAFHRHAWSTVVGLLYHSMHYYLNNIWPAHTKIAEAMHHQDCLLFATSHLISLEVSPPPTLSQNLSGSPLITVHLKHRLTRKQHSEATNSSNRVFVYCAFLDFSSGEGVWSNHGCALTRGNLTYSVCRCTHLTNFAILMQVVPLELARGHQVALSSISYVGCSLSVLCLVATLVTFAVLSSVSTIRNQRYHIHANLSFAVLVAQVLLLISFRLEPGTTPCQVMAVLLHYFFLSAFAWMLVEGLHLYSMVIKVFGSEDSKHRYYYGMGWGFPLLICIISLSFAMDSYGTSNNCWLSLASGAIWAFVAPALFVIVVNIGILIAVTRVISQISADNYKIHGDPSAFKLTAKAVAVLLPILGTSAVFGVLAVNGCAVVFQYMFATLNSLQGLFIFLFHCLLNSEVRAAFKHKTKVWSLTSSSARTSNAKPFHSDLMNGTRPGMASTKLSPWDKSSHSAHRVDLSAV
For B2, the “Cell-surface expression (% of WT)” value is given as 69 ± 2 % of WT.

These data come from publication PMC9046087, “Structural basis of tethered agonism of the adhesion GPCRs ADGRD1 and ADGRF1” (Nature, 2022).
